B1: mouse monoclonal anti-LAG-3 antibody 34F4 (antibody, V domains shown)
VH: QVTLKESGPGILQPSQTLSLTCSFSGFSLNTSGMGVGWIRQPSGKGLEWLTHIWWDDVKRYNPALKSRLTISKDTSSSQVFLKIASVDTADTATYYCARIEGDTYYDYYFDYWGQGVTLTVSS
VL: DIVMTQSHKLMSTSVGDGLSITCKASQDVSIAVVWYQQKPGQSPKLLIYSASFRYTGVPDRFTGSGSGTDFTFTISSVQAEDLAVYYCQQHYSIPWTFGGGTKLEIK
notes: Whole mouse monoclonal antibody from a hybridoma; mIgG1 was used as its isotype control
B2: mouse monoclonal anti-LAG-3 antibody 13E2 (antibody, V domains shown)
VH: QVTLKESGPGILQPSQTLSLTCSFSGFSLSTSGMGLGWIRQPSGKGLEWLTHIWWDDIKRYNPDLRSRLTISKDTSSSQIFLKIASVDTADTATYYCARIVEGSYSSSYFDVWGAGTTVTVSS
VL: DIVMTQPHKFMSTSVEDRVTITCKASQDVIFDVAWYQQKPGQSPKLLIYSASSRVSGVPDRFTGSGSGTDFTFTISSVQAEDLAVYYCQQHYSTPYTFGGGTTLEIK
notes: as for B1

Tests used:
[1] = target: human LAG-3 protein (Lymphocyte activation gene-3) on the cell surface (human) (UniProt P18627); experiment: flow cytometry on CHO-LAG-3+ cells; antibody 6 ng/ml
[2] = target: human LAG-3 protein (Lymphocyte activation gene-3) on the cell surface (human) (UniProt P18627); experiment: flow cytometry on CHO-LAG-3+ cells; antibody 20 ng/ml
[3] = target: human LAG-3 protein (Lymphocyte activation gene-3) on the cell surface (human) (UniProt P18627); experiment: flow cytometry on CHO-LAG-3+ cells; antibody 61 ng/ml
[4] = target: human LAG-3 protein (Lymphocyte activation gene-3) on the cell surface (human) (UniProt P18627); experiment: flow cytometry on CHO-LAG-3+ cells; antibody 192 ng/ml
[5] = target: human LAG-3 protein (Lymphocyte activation gene-3) on the cell surface (human) (UniProt P18627); experiment: flow cytometry on CHO-LAG-3+ cells; antibody 605 ng/ml
[6] = target: human LAG-3 protein (Lymphocyte activation gene-3) on the cell surface (human) (UniProt P18627); experiment: flow cytometry on CHO-LAG-3+ cells; antibody 1905 ng/ml
[7] = target: human LAG-3 protein (Lymphocyte activation gene-3) on the cell surface (human) (UniProt P18627); experiment: flow cytometry on CHO-LAG-3+ cells; antibody 6000 ng/ml
[8] = target: human LAG-3 protein (Lymphocyte activation gene-3) on the cell surface (human) (UniProt P18627); experiment: flow cytometry on CHO-LAG-3+ cells; antibody 0 ng/ml (no-antibody background)
[9] = target: T1, IMP321 (recombinant soluble human LAG-3Ig fusion protein) (human, UniProt P18627 23-450); experiment: cell-based or functional assay
T1 sequence (looked up): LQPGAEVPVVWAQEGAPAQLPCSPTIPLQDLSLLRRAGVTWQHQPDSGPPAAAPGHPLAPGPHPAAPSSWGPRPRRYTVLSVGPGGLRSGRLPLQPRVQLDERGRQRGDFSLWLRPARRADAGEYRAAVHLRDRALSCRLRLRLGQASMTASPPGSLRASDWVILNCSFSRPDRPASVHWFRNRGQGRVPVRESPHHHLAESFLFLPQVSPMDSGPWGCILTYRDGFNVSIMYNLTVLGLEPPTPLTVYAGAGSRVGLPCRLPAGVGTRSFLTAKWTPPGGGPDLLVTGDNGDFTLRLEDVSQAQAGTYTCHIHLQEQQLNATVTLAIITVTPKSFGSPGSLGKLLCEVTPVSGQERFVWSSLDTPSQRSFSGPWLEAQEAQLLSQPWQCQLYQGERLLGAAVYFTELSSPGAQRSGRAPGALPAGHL

[10] = target: T2, human LAG-3 protein (Lymphocyte activation gene-3) on the cell surface (human, UniProt P18627 23-525); experiment: flow cytometry on CD4+ cells of SEB-stimulated PBMCs, mean of three donors
T2 construct: also called CD223; CHO LAG-3+
T2 sequence: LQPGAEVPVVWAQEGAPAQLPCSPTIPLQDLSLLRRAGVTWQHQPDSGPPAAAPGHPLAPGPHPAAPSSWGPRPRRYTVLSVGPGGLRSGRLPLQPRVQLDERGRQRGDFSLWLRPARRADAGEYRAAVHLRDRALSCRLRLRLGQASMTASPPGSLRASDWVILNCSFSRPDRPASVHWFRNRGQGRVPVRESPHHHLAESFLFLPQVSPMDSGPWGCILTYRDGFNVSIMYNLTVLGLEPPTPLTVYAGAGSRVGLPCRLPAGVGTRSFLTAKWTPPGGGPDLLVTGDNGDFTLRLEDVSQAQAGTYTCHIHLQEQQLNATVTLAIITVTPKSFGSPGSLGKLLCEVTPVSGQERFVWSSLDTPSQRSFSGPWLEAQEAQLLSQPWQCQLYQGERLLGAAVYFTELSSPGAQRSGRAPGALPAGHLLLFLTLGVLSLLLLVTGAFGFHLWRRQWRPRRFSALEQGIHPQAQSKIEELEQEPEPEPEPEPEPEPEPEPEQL
Procedure: (§1) LAG-3⁺-transfected CHO cells, or SEB-stimulated PBMCs from a healthy donor were incubated with anti-LAG-3 monoclonal antibody, or an isotype control (mIgG1) for 30 minutes in PBS, BSA 0.5%, Azide 0.1% at 4° C. […] The secondary antibody was washed away, and the CHO cells were directly analyzed by flow cytometry. The PBMCs were phenotyped using CD4-PE-Cy7 and CD8-APC-Cy7.

[11] = target: T2, human LAG-3 protein (Lymphocyte …); experiment: flow cytometry on CD8+ cells of SEB-stimulated PBMCs, mean of three donors
Procedure: as §1

[12] = target: T2, human LAG-3 protein (Lymphocyte …); experiment: flow cytometry on CD4+ cells of SEB-stimulated PBMCs (Donor 1), from Table 13
Procedure: as §1

[13] = target: T2, human LAG-3 protein (Lymphocyte …); experiment: flow cytometry on CD4+ cells of SEB-stimulated PBMCs, three donors; reference 17B4
Procedure: as §1

[14] = target: T2, human LAG-3 protein (Lymphocyte …); experiment: flow cytometry on CD8+ cells of SEB-stimulated PBMCs, three donors; reference 17B4
Procedure: as §1

[15] = target: T2, human LAG-3 protein (Lymphocyte …); experiment: flow cytometry on LAG-3-expressing CHO cells, four independent experiments; reference 17B4
Procedure: as §1

[16] = target: T2, human LAG-3 protein (Lymphocyte …); experiment: flow cytometry on CD8+ cells of SEB-stimulated PBMCs (Donor 1), from Table 13
Procedure: as §1

Row | Molecule | MFI FITC [1] [MFI] | MFI FITC [2] [MFI] | MFI FITC [3] [MFI] | MFI FITC [4] [MFI] | MFI FITC [5] [MFI] | MFI FITC [6] [MFI] | MFI FITC [7] [MFI] | MFI FITC [8] [MFI] | percentage of inhibition of CD8+ T cell proliferation; Donor #1, 34F4 1000 ng/ml neutralised with a 10-fold excess of IMP321 [9] [%] | percentage of inhibition of CD8+ T cell proliferation; Donor #2, 34F4 1000 ng/ml neutralised with a 10-fold excess of IMP321 [9] [%] | EC50 [10] [nM] | EC50 [11] [nM] | EC50 [12] [nM] | ratio of mean EC50 against 17B4 [13] [times] | ratio of mean EC50 against 17B4 [14] [times] | ratio of mean EC50 against 17B4 [15] [times] | EC50 [16] [nM]
1 | human IgG4 (isotype-matched negative control) (antibody) | 37 | 49 | 69 | 59 | 46 | 77 | 71 | 35 |  |  |  |  |  |  |  |  | 
2 | B1 |  |  |  |  |  |  |  |  | 0 | 41 | 0.2 | 0.5 | 0.1 | 3.8 | 2.5 | 1.6 | 
3 | B2 |  |  |  |  |  |  |  |  |  |  | 0.2 | 0.4 | 0.1 | 3.8 | 2.5 | 2.7 | 0.3
